Patent US20220332804A1 (CSL INNOVATION, published 2022)
Residue numbers refer to the chain shown, from its start.

Legend:
Test in all cases: SPR, antibody captured, C2 as analyte;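 also: biacore at 37 °C, anti-C2 mAbs held by immobilised goat anti-human IgG, C2 alanine or serine mutants injected, double-referenced sensorgrams fitted to a 1:1 kinetic or steady-state model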
human C2 A470S = biological target: T1, human C2 A470S (human, UniProt P06681 21-752)
T1 sequence: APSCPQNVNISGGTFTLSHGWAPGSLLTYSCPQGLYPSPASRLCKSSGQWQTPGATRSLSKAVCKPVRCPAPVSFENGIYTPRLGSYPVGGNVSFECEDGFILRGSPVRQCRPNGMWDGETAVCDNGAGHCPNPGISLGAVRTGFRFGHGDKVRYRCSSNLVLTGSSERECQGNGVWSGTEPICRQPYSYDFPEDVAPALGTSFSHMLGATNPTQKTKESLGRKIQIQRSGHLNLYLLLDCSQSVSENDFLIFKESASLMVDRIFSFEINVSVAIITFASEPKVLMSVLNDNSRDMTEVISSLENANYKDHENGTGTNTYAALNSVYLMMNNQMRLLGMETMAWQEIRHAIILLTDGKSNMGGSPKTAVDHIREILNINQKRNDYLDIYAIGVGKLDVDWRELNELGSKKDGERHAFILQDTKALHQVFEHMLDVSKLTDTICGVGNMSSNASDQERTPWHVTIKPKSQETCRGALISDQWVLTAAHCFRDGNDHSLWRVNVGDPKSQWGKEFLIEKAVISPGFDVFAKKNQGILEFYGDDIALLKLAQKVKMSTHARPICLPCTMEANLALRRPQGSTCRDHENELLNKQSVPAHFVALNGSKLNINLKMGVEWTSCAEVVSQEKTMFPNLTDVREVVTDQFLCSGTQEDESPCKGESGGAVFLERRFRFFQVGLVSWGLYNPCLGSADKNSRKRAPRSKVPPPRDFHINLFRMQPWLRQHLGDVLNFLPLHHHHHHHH

human C2 D417A = biological target: T2, human C2 D417A (human, UniProt P06681 21-752)
T2 sequence: T1 sequence with D397A, S450A

human C2 D269A = biological target: T3, human C2 D269A (human, UniProt P06681 21-752)
T3 sequence: T1 sequence with D249A, S450A

human C2 W420A = biological target: T4, human C2 W420A (human, UniProt P06681 21-752)
T4 sequence: T1 sequence with W400A, S450A

B1: RF16-242 (antibody, human IgG4 S228P, lambda, V domains shown)
VH: EVQLLQSGAEVKKPGESLKISCKGSGYSFTSYWIGWVRQMPGKGLEWMGIIYPGDSDTRYSPSFQGQVTISADKSISTAYLQWSSLKASDTAMYYCARRGHYGDYFDYWGQGTLVTVSS
VL: SYELTQPPSVSVSPGQTARITCSGDALPKKYAYWYHQKSGQAPVLVIYEDRRRPSEIPERFSGSSSGTMATLTITGAQVEDEGVYFCYSRDRAGNQRVFGGGTQLTVLG
notes: pH-dependent anti-C2 antibody from a phage display library
B1 was tested, and the Kd (human C2 A470S) was 5 nM, the Kd (human C2 D417A) was 23 nM and the Kd (human C2 D269A) was 12.9 nM. It also gave a Kd (human C2 W420A) of 13.2 nM.
